Positions count from the first letter of the chain named. Where “and” joins values, the source holds several entries; their conditions need not be identical. Identical values can stand only once.
B1: S36-cHis antibody (VHH)
VHH: QVQLVESGGGLVQAGGSLRLSCAASIRTFSDYAMAWFRQGPRKEREFVAAISWNGVTTFYADSVKGRFTISRDDAKNSVYLQMNSLKPEDTAVYYCAGGLNVGWGTHEREYDDWGQGTQVTVSS
notes: HEK293 construct; an E. coli preparation is also described
B2: C24-cHis antibody (VHH)
VHH: QVQLVESGGGLVQPGGSLRLSCAASGPIFSINTMGWYRQAPGKQRELVATMHSTGSTNYADSVKGRFTISRDNAKKTVYLQMNSLKPDDTAVYYCHVDDTGWGTVDSWGQGIQVTVSS
notes: as for B1
B3: C27-cHis antibody (VHH)
VHH: QLQLVESGGGLVQPGGSLRLSCVVSGSIFAINTMGWYRQAPGKQRELVATMHSGGSTNYADSVKGRFTISRDAAPKTVYLQMNSLKPADTAVYYCHADDSGWGTVDSWGQGIQVTVSS
notes: as for B1
B4: S5-cHis antibody (VHH)
VHH: QVQLVESGGGLVQAGGSLRVSCAASGGTFSSTAMGWFRQAPGKEREFVAAISWSGGYTYYADSVRGRFTISRDNALNTVSLQMNSLKPEDTAVYYCAADISGLDTVAAGIFTEPNIDYWGKGTLVTVSS
notes: HEK293 construct; an E. coli preparation is also described; Biotinylated for the ForteBio assay; also called SNA006d; SNA006-d
B5: S5-cHis-NOTA (VHH)
VHH: B4 VHH
modifications: p-SCN-Bn-NOTA coupled (lysine); sites and number not stated
notes: also called CD8α-cHis-NOTA (S5)
B6: ^125I-SNA006d (VHH)
VHH: B4 VHH
modifications: 125I label by the chloramine T method; labelled residues not stated
B7: C29-cHis antibody (VHH)
VHH: QVQLVESGGGLVQAGGSLRLSCVASGFTSDDYVIGWFRQAPGKEREGVSCISSSDGTTNYADSVKGRFTISSDNAKNTVYLQMNSLKPEDTAVYYCAADPMRVCPYSGTYYGILGFGTSGQGTQVTVSS
notes: as for B1
B8: C42-cHis antibody (VHH)
VHH: QVQLVESGGGLVQAGGSLRLSCAASGLTFEDYAIGWFRQAPGKEREGISCIRIYDGNTYSAESVKGRFTISSDNAKNQVYLQINTLKPEDTAVYYCAAGSYYSCSVYPDYDMDYWGKGTLVTVSS
notes: HEK293 construct; an E. coli preparation is also described; Biotinylated for the ForteBio assay; also called SNA006b; SNA006-b
B9: ^125I-SNA006a (VHH)
VHH: B8 VHH with V2L
modifications: 125I label by the chloramine T method; labelled residues not stated
B10: C37-cHis-NOTA (VHH)
VHH: B8 VHH with V2L
modifications: p-SCN-Bn-NOTA coupled (lysine); sites and number not stated
notes: also called CD8α-cHis-NOTA (C37); NOTA-CD8α single domain antibody precursor
B11: C37-cHis antibody (VHH)
VHH: B8 VHH with V2L
notes: HEK293 construct; an E. coli preparation is also described; Biotinylated for the ForteBio assay; also called C37-his; SNA006a
B12: C2-cHis antibody (VHH)
VHH: B8 VHH with A14P, L27F, F29L, E30D, D31Y
notes: HEK293 construct; An E. coli (PET22b) preparation is also described
B13: ^125I-SNA006c (VHH)
VHH: QVQLVESGGGLVQAGGSLRLSCAASGVTFDDLAIGWFRQVPGKGREGVSTIGTSDGTAYYADSVKGRFTISSDNAKNTVYLQMNSLKPEDTAVYYCAVDLDYGLGSLLPMGYDYWGQGTQVTVSS
modifications: 125I label by the chloramine T method; labelled residues not stated
B14: C46-cHis antibody (VHH)
VHH: B13 VHH
notes: HEK293 construct; an E. coli preparation is also described; Biotinylated for the ForteBio assay; also called SNA006c; SNA006-c
B15: C46-cHis-NOTA (VHH)
VHH: B13 VHH
modifications: p-SCN-Bn-NOTA coupled (lysine); sites and number not stated
notes: also called CD8α-cHis-NOTA (C46)

Columns and labels:
CD8α-Fc fusion protein [1] = biological target: T1, CD8α-Fc fusion protein (human); experiment: ELISA on coated CD8α-Fc, relative to C2-cHis control
T1 construct: also called CD8 α-Fc protein; CD8α-Fc tag antigen
Method: (§1) The CD8 α-Fc protein was transiently expressed by HEK293 and purified by protein A affinity chromatography. The plate was coated with the obtained CD8α-Fc protein in a concentration of 0.5 μg/well at 4° C. overnight, and then the gradient dilution series of the obtained anti-CD8α single domain antibody protein was added to react for 1 hour at room temperature. After washing, anti-his horseradish peroxidase labeled antibody was added to react for 1 hour at room temperature. After washing, a chromogenic solution was added, and an absorption value at 450 nm was read. The data processing and plotting analysis were performed by using software SotfMaxPro v5.4. […] Of the 10 selected antibodies (see Table 5 for details), the relative activities of different anti-CD8α single domain antibodies were compared by using C2-cHis as control, so as to reflect the affinity of the antibodies on CD8α. Of the 10 tested antibodies, C37, C42, C46, S5 and S36 have relatively high binding activity.

[2] = biological target: T2, human CD8α full-length protein (human, UniProt P01732 22-235); experiment: flow cytometry on MC38-CD8α cells, secondary antibody-PE
T2 construct: whole, on cells; The same entry is used for MC38-CD8α transfectants and for human CD8+ T cells from peripheral blood; the assay field says which cells; also called cell surface CD8α; MC38-CD8α cells
Method: Mouse colon cancer MC38 cell lines stable transfected with human CD8α full-length protein gene were constructed to obtain MC38 cells (MC38-CD8α cells) stably expressing human CD8α proteins on the cell membrane. Prior to use, the cells were cultured to >90% convergence. The anti-CD8α single domain antibody was used to perform flow cytometry on these cells for quantitative analysis of indirect immunofluorescence staining so as to determine the quantity of receptors on surface of each cell.
The cells were collected and suspended to a concentration of 2.5×10⁶ cells/mL. 200 μL of cell aliquot samples were mixed with 20 μL of primary antibody, and the obtained mixture was incubated for 30 min on ice. The cells were centrifuged, washed and re-suspended, then 5 μL of secondary antibody-PE conjugate was added, and then the above mixture was incubated for 30 minutes on ice. The cells were washed twice, re-suspended and underwent flow cytometry on BD FACSCelesta™. For each tube, at least 5×10⁴ events were collected. All the analyses were single colors, and PE was detected in […].

CD8α-Fc fusion protein [3] = biological target: T1, CD8α-Fc fusion protein; experiment: ELISA on coated CD8α-Fc, anti-his-HRP, four-parameter fit
Method: as §1

CD8α-cHis fusion protein = biological target: T3, CD8α-cHis fusion protein (UniProt P01732 22-182); experiment: BLI (ForteBio Octet), biotinylated antibody on SA sensor, CD8α-chis 6.25-100 nM
T3 construct: not shown: C-terminal His tag
Method: The anti-CD8α single domain antibody-biontin was fixed on an SA biological sensor. Then, CD8α-chis with a concentration of 6.25-100 nM bound to a nano antibody and then dissociated. The binding dynamic variables of four antibodies C37, C42, C46 and S5 were evaluated and determined by using Octet Data Analysis version 9.0, including Kon, Koff and Kd.

CD8α-Fc fusion protein [4] = biological target: T1, CD8α-Fc fusion protein; experiment: ELISA on coated CD8α-Fc, antibody after exchange into NaHCO3 buffer, relative to the uncoupled antibody as standard
Method: (§2) By using PD-10 column (GE), the buffer of the CD8α-cHis single domain antibody (including C37, C46 and S5) was changed to a NaHCO3 buffer solution with a certain pH, and p-SCN-Bn-NOTA (Macrocyclics, article No. B-605) was dissolved into DMSO with a concentration of 25 mg/mL, and the p-SCN-Bn-NOTA solution whose molar was twice that of lysine on the single domain antibody was added into the CD8α single domain antibody, the above materials reacted for a certain time period at room temperature, the conjugated product was purified by PD-10 column (GE) and concentrated by ultrafiltration.
(§3) The activity of the above CD8α-NOTA after labeling was determined by ELISA. The specific method is as follows: the CD8α-Fc fusion protein was placed in the coated plate in a concentration of 5 μg/well at 4° C. overnight. After blocking with 3% BSA at 37° C., samples subjected to gradient dilution (the uncoupled CD8α single domain antibody was a standard substance) were added to act for 1 hour at 37° C. Then, anti-his-HRP (purchased from Abcam Company) was added to react for 1 hour at room temperature. Then, a chromogenic solution was added, and the absorption value at 450 nm was read.

CD8α-Fc fusion protein [5] = biological target: T1, CD8α-Fc fusion protein; experiment: ELISA on coated CD8α-Fc, NOTA conjugate, relative to the uncoupled antibody as standard
Method: as §2, §3

[6] = biological target: T2, human CD8α full-length protein; experiment: radioligand saturation binding on MC38-CD8 cells, 4 °C, one-site fit
Method: (§4) Receptor binding reaction: a radioligand saturation method was used, total binding and non-specific binding groups were included.
(§5) The cells were incubated for 2 h at 4° C. After that, the supernatant was extracted, the cells were washed 6 times with PBS pre-cooled at 4° C., and 200 μL of PBS was added into each well every time. Finally, the filter membrane was collected, the radioactivity count of each tube of sample and standard sample was measured on the γ counter. Finally, saturation curve fitting was performed by using Prism 7.0 (GraphPad Software, Inc.) software according to the single-point binding model, and then KD and Bmax were calculated.

[7] = biological target: T2, human CD8α full-length protein; experiment: competition binding on MC38-CD8 cells, displacement of ^125I-SNA006a, 4 °C, 2 h
Method: (§6) The 96-well cell suction filter plate was saturated with a binding buffer and dried in air before use.
(§7) After reaction for 2 hours at 4° C., the reaction solution in the suction filter plate was drained using auxiliary equipment of a vacuum pump and the suction filter plate, 200 μL of PBS buffer (0.01 M, pH=7.4) was added into each well and drained, and the cells were repeatedly washed for 6 times. After the filter membrane at the bottom of the suction filter plate was dried, the filter membrane at the bottom was collected, and a γ counter was used for measurement. Calculation and plotting were performed by using Prism 7.0 (GraphPad Software, Inc.), and the half inhibition concentration IC50 was calculated by nonlinear regression analysis. Four parallel samples were set at each experimental point, and the experiment was repeated twice. The result given in this experiment is an average value plus a standard deviation.

[8] = biological target: T2, human CD8α full-length protein; experiment: competition radioligand binding on MC38-CD8 cells, 2 h at 4 °C; unlabeled SNA006a varied against the tracer 125I-SNA006a
Method: as §6, §7

CD8α-Fc fusion protein [9] = biological target: T1, CD8α-Fc fusion protein; experiment: ELISA on coated CD8α-Fc; C2-cHis is the control (=100)
Method: as §1

[10] = biological target: T2, human CD8α full-length protein; experiment: saturation radioligand binding on MC38-CD8 cells, 2 h at 4 °C, one-site fit; panel assigned through the KD of Table 8 (3.8 nM, 125I-SNA006c)
Method: as §4, §5

T1 sequence (chain, as listed by the source): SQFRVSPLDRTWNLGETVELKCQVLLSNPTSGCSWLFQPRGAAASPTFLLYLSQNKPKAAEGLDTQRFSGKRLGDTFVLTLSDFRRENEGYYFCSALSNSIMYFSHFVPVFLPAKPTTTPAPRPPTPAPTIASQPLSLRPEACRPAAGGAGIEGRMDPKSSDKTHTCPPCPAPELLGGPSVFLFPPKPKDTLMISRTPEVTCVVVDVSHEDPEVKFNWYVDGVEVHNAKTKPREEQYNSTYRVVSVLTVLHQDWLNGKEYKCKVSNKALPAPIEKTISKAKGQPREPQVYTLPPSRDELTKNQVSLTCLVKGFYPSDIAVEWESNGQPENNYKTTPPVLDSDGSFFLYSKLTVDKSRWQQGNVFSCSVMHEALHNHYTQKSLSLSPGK
T2 sequence (P01732 22-235): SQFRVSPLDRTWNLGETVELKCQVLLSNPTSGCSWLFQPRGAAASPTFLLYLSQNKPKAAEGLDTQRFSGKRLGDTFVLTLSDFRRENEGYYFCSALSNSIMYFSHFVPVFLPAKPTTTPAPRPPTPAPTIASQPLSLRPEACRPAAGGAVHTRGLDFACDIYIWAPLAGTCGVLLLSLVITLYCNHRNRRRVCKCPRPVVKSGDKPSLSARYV
T3 sequence (P01732 22-182): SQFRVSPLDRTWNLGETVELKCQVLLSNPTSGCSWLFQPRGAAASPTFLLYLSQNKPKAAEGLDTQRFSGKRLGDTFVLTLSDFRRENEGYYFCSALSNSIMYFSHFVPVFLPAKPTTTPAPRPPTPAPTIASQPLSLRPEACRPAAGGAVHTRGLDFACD

| Binder | Relative activity (%) (CD8α-Fc fusion protein [1]) | Positive rate (%) [2] [%] | EC50 (CD8α-Fc fusion protein [3]) | further results |
| --- | --- | --- | --- | --- |
| B1 | 289 | 99.7 | 1.42 ng/mL | – |
| B2 | 47.9 | 99.4 | 4.59 ng/mL | – |
| B3 | 96.4 | 93.6 | 2.28 ng/mL | – |
| B4 | 180 | 99.7 | 2.28 ng/mL | Kd (CD8α-cHis fusion protein): 2.87 nM; koff (CD8α-cHis fusion protein): 0.000445 s⁻¹; kon (CD8α-cHis fusion protein): 155000 M⁻¹ s⁻¹; Relative activity of CD8α-cHis-NaHCO3 (%) (CD8α-Fc fusion protein [4]): 98% |
| B5 | – | – | – | Relative activity of CD8α-cHis-NOTA (%) (CD8α-Fc fusion protein [5]): 105% |
| B6 | – | – | – | Kd [6]: 1.5 nM |
| B7 | 61.9 | 98.4 | 3.55 ng/mL | – |
| B8 | 269 | 99.9 | 1.18 ng/mL | Kd (CD8α-cHis fusion protein): 0.727 nM; koff (CD8α-cHis fusion protein): 0.00042 s⁻¹; kon (CD8α-cHis fusion protein): 578000 M⁻¹ s⁻¹ |
| B9 | – | – | – | Kd [6]: 0.46 nM |
| B10 | – | – | – | Relative activity of CD8α-cHis-NOTA (%) (CD8α-Fc fusion protein [5]): 77% |
| B11 | 322 | 99.8 | 0.989 ng/mL | IC50 [7]: ~3 nM; Kd (CD8α-cHis fusion protein): 0.644 nM; koff (CD8α-cHis fusion protein): 0.000311 s⁻¹; kon (CD8α-cHis fusion protein): 483000 M⁻¹ s⁻¹; Relative activity of CD8α-cHis-NaHCO3 (%) (CD8α-Fc fusion protein [4]): 76%; IC50 [8]: 3.02 nM; IC50 (read off the curve) [8]: ~3 nM |
| B12 | – | 99.9 | 2.2 ng/mL and 3.18 ng/mL and 4.11 ng/mL | Relative activity (%) (CD8α-Fc fusion protein [9]): 100% |
| B13 | – | – | – | Kd [6]: 3.8 nM; Kd [10]: 3.84 nM |
| B14 | 175 | 99.5 | 1.82 ng/mL | Kd (CD8α-cHis fusion protein): 1.08 nM; koff (CD8α-cHis fusion protein): 0.000271 s⁻¹; kon (CD8α-cHis fusion protein): 251000 M⁻¹ s⁻¹; Relative activity of CD8α-cHis-NaHCO3 (%) (CD8α-Fc fusion protein [4]): 76% |
| B15 | – | – | – | Relative activity of CD8α-cHis-NOTA (%) (CD8α-Fc fusion protein [5]): 20% |
